For assay [1], the target named is GDF8 protein (R&D Systems Inc., Minneapolis, Minn.) (UniProt O14793). In words: cell-based or functional assay.
The target of assay [2] is DJ1 peptide (GDF8 residues 267-286) (human). In words: ELISA, peptide coated 500 ng/well; MAB 788 10 mg/ml diluted 1:20. A general note: In an ELISA, binding on a coated surface is turned into a signal by an enzyme label.
In assay [3] the target is DJ2 peptide (GDF8 residues 282-301) (human). The description is as above.
Assay [4] has as its target DJ3 peptide (GDF8 residues 297-316) (human). The description is as above.
The target of assay [5] is DJ4 peptide (GDF8 residues 312-331) (human). The assay is described as above.
Chain of DJ4 peptide (GDF8 residues 312-331) (human) (peptide, as listed by the source): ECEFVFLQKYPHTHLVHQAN
In assay [6] the target is DJ5 peptide (GDF8 residues 327-346) (human). The assay is described as above.
Chain of DJ5 peptide (GDF8 residues 327-346) (human) (peptide, as listed by the source): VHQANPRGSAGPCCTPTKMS
Assay [7] deals with DJ6 peptide (GDF8 residues 342-361) (human). The description is as above.
Chain of DJ6 peptide (GDF8 residues 342-361) (human) (peptide, as listed by the source): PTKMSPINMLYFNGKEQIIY
In assay [8] the target is DJ7 peptide (GDF8 residues 357-375) (human). Described as above.
In assay [9] the target is DJ1 peptide (GDF8 residues 267-286) (human). Nature of the assay: ELISA, peptide coated 500 ng/well; MAB 788 10 mg/ml diluted 1:40.
Assay [10] addresses DJ2 peptide (GDF8 residues 282-301) (human). Described as above.
Assay [11] has as its target DJ3 peptide (GDF8 residues 297-316) (human). The assay is described as above.
In assay [12] the target is DJ4 peptide (GDF8 residues 312-331) (human). The description is as above.
Assay [13] concerns the target DJ5 peptide (GDF8 residues 327-346) (human). Described as above.
In assay [14] the target is DJ6 peptide (GDF8 residues 342-361) (human). Described as above.
In assay [15] the target is DJ7 peptide (GDF8 residues 357-375) (human). The description is as above.
Assay [16] deals with DJ1 peptide (GDF8 residues 267-286) (human). Nature of the assay: ELISA, peptide coated 500 ng/well; MAB 788 10 mg/ml diluted 1:80.
Assay [17] has as its target DJ2 peptide (GDF8 residues 282-301) (human). The assay is described as above.
Assay [18] has as its target DJ3 peptide (GDF8 residues 297-316) (human). Described as above.
For assay [19], the target named is DJ4 peptide (GDF8 residues 312-331) (human). The description is as above.
For assay [20], the target named is DJ5 peptide (GDF8 residues 327-346) (human). The description is as above.
The target in assay [21] is DJ6 peptide (GDF8 residues 342-361) (human). Described as above.
The target in assay [22] is DJ7 peptide (GDF8 residues 357-375) (human). Described as above.
Assay [23] concerns the target purified GDF8 prohormone with C-terminal FLAG epitope (GDF8 prohormone-FLAG fusion protein) (human) (UniProt O14793). In words: ELISA, purified GDF8 prohormone coated 250 ng/well; MAB 788 10 mg/ml diluted 1:20.
For assay [24] the target is unchanged. Nature of the assay: ELISA, purified GDF8 prohormone coated 250 ng/well; MAB 788 10 mg/ml diluted 1:40.
For assay [25] the target is unchanged. Nature of the assay: ELISA, purified GDF8 prohormone coated 250 ng/well; MAB 788 10 mg/ml diluted 1:80.

Here are results for two substances from patent publication US20090311282A1.

Chain of DJ2 peptide (GDF8 residues 282-301) (human) (peptide, as listed by the source): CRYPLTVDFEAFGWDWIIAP
Chain of DJ3 peptide (GDF8 residues 297-316) (human) (peptide, as listed by the source): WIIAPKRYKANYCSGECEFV
Chain of DJ1 peptide (GDF8 residues 267-286) (human) (peptide, as listed by the source): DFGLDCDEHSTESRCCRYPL

On to “Rat monoclonal antibody 788 (R&D Systems Inc., Cat. No. MAB788)”, for which the % Inhibition of GDF8 Activity (0.1 µg IgG), A204 CAGA-luciferase transcriptional activation assay in assay [1] amounted to 0%. For the same substance, the % Inhibition of GDF8 Activity (1.8 µg IgG), A204 CAGA-luciferase transcriptional activation assay in assay [1] was 0%. In assay [1], this substance yielded a % Inhibition of GDF8 Activity (3.1 µg IgG), A204 CAGA-luciferase transcriptional activation assay of 7%. In [1], this substance returned a % Inhibition of GDF8 Activity (6.3 µg IgG), A204 CAGA-luciferase transcriptional activation assay of 17%. The % Inhibition of GDF8 Activity (12.5 µg IgG), A204 CAGA-luciferase transcriptional activation assay in [1] came to 47%. Besides, the OD 405/minute × 1000 (OD 405/minute × 1000) in assay [2] came out at 4; in assay [3], 0; in assay [4] it was 0; in assay [5], 0; in assay [6], 133; in [7], 0. In addition, the OD 405/minute × 1000 (OD 405/minute × 1000) in assay [8] was found to be 0; in [9], 0; in assay [10], 0; in assay [11] it was 0; in assay [12], 0; in assay [13] it was 118. Moreover, the OD 405/minute × 1000 (OD 405/minute × 1000) in assay [14], in assay [15], in [16], in [17], in [18] and in [19] was 0 each time. Besides, the OD 405/minute × 1000 (OD 405/minute × 1000) in [20] stood at 102; in assay [21], 0; in assay [22], 0; in assay [23], 132; in assay [24] it was 127; in [25], 132.

Turning to “normal goat IgG (negative control purified from non-immunized goat sera) (antibody)”, the % Inhibition of GDF8 Activity (250 µg IgG), A204 CAGA-luciferase transcriptional activation assay in [1] worked out at 0%.
